Here are results for 5 molecules from US12415869B2, “Chemically induced protein dimerization systems” (UNIVERSITY OF WASHINGTON, priority 2019, dated 2025).

Holding throughout (assay type): binding
Test [1] has as its system CA-14-CBD complex. The test can be described thus: BLI of immobilized dimerization binders with CA-14 pre-equilibrated with CBD. Conditions: for Koff / Kon: CBD +. From the text:
(§1) With the purified DB nanobodies in hand, we first sought to determine their binding affinities to the CA-14-CBD. CBD might directly bind to selected dimerization binders, which can affect the affinity measurement. To rule out this possibility, the four nanobodies were biotinylated (FIG. 7c) and immobilized on streptavidin biosensors, and the interaction with CBD was detected by BLI. Only minimal binding between CBD and the dimerization binders was detected (data not shown). Moreover, the binding-dissociation dynamics of the CA-14-CBD complex can also affect the measurement of dimerization binder affinities. To address this, the affinity was measured by a BLI assay in which the biosensor-immobilized dimerization binders were interacted with CA-14 pre-equilibrated with varied concentrations of CBD (FIG. 9a). The concentrations of the CA-14-CBD complex in equilibrium were calculated based on input CA-14 and CBD concentrations. The CA-14-CBD complex concentration was approximated to be constant because only a minimal fraction of the complex bound to the biosensor tips during the BLI assay. It was confirmed that CA-14 only interacts with the dimerization binders in the presence of CBD (FIG. 3a). The KDs of the four dimerization binders varied from 56.4 nM to 19 μM (Table 5).
The nanobody binding kinetics was analyzed using an Octet™ RED96 system (ForteBio) and Streptavidin (SA) or Super Streptavidin (SSA) biosensors. For the anchor-binder analysis, 200 nM biotinylated anchor binders were immobilized on SSA biosensors with a binding assay buffer (1×PBS, pH 7.4, 0.05% Tween 20, 0.2% BSA, 3% methanol; Note: because CBD and THC were dissolved in methanol to make stock solutions, 3% methanol was added to the buffer to fairly compare samples and controls). Serial dilutions of CBD and THC were used for the anchor binder assays. Dissociation constants (KDs) of anchor binder-ligand interactions were calculated based on a steady-state analysis using Octet™ RED96 data analysis software. For the dimerization-binder analysis, 200 nM biotinylated dimerization binders were immobilized on SA biosensors with the binding assay buffer and then assayed with 1 μM CA-14 pre-equilibrated with serial dilutions of CBD or THC. KDs, kons, and koffs of the interactions between anchor binder-ligand complexes and dimerization binders were calculated based on a heterogeneous ligand model global fit (2:1) of the data and simulated binding equilibria of the anchor binder and CBD described in Supplementary Notes.
In order to determine the binding kinetics of our nanobody CID system we performed a series of bio layer interferometry (BLI) experiments. In all experiments we used an Octet RED96 system (ForteBio) and Streptavidin Biosensors (ForteBio). 200 nM biotinylated protein (FIGS. 7b & 4C) were immobilized on biosensors (Super Streptavidin, SSA used for anchor binder; Streptavidin, SA used for dimerization binder) with a binding assay buffer (1×PBS, pH 7.4, 0.05% Tween 20, 0.2% BSA, 3% methanol; Note: because CBD and THC were dissolved in methanol to make stock solutions, 3% methanol was added to the buffer to fairly compare samples and controls). Ligand loading was followed by a quenching step using free biotin. All experiments were performed using four measurements to control for sensor drift and unspecific binding: • No ligand, no analyte • With ligand, no analyte • No ligand, with analyte • With ligand, with analyte
Next, we wanted to determine the binding affinity between CA-14 bound to CBD (referred to as CA-14*) and a panel of DBs. We observed no detectable binding between CA-14 and any of the DBs (FIG. 3a). We also rely on the observation that the DBs have weak binding to CBD, and therefore we can assume that only CA-14* binds the DB loaded to the sensor. We control the CA-14* concentration by using a fixed concentration of 1 μM CA-14 pre-incubated to equilibrium with six different concentrations of CBD. […]

Test [2] in a line: BLI of immobilized dimerization binders with CBD alone.
Excerpt: as §1, with “It was confirmed that CA-14 only interacts with the dimerization binders in the presence of CBD (FIG. 3a). The KDs of the four dimerization binders varied from 56.4 nM to 19 μM (Table 5).” left out
We first determined the binding affinity between the CBD anchor 14 (CA-14) and CBD via steady-state analysis (FIG. 8). […] We observed minimal binding between DBs and CBD, but the KDs are too weak to be determined (data not shown). […]

Test [3] is described as follows: Bio-Layer Interferometry (BLI) of immobilized anchor binders with unlabeled CBD or THC. The conditions noted are these: unlabeled CBD, anchor binder immobilized on Super Streptavidin biosensors, steady-state analysis, read-out: dissociation constants (KDs) of anchor binder to CBD. The text has this: To confirm that the nanobody binding only requires CBD, and not the linker between CBD and biotin or the streptavidin, we measured the binding affinity using unlabeled CBD. Anchor-binder hits were expressed in E. coli periplasm and purified by nickel-affinity and size-exclusion chromatography (SEC). Purified nanobodies were enzymatically biotinylated (FIG. 7a-b) and immobilized on streptavidin biosensors to quantify binding affinities to CBD or THC by Bio-Layer Interferometry (BLI) (FIG. 8a).
The nanobody binding kinetics was analyzed using an Octet™ RED96 system (ForteBio) and Streptavidin (SA) or Super Streptavidin (SSA) biosensors. […] Dissociation constants (KDs) of anchor binder-ligand interactions were calculated based on a steady-state analysis using Octet™ RED96 data analysis software. […] KDs, kons, and koffs of the interactions between anchor binder-ligand complexes and dimerization binders were calculated based on a heterogeneous ligand model global fit (2:1) of the data and simulated binding equilibria of the anchor binder and CBD described in Supplementary Notes. […]
We first determined the binding affinity between the CBD anchor 14 (CA-14) and CBD via steady-state analysis (FIG. 8). […] We observed minimal binding between DBs and CBD, but the KDs are too weak to be determined (data not shown).
(In general: Biolayer interferometry detects binding as a change in optical thickness at a sensor tip.)

B1: DB-11: dimerization binder nanobody; CDRs TTSDNDT, WNGGRDE, YQDNRSWQE (SEQ ID NO: 40-42) (protein)
VHH: EVQLQASGGGFVQPGGSLRLSCAASGTTSDNDTMGWFRQAPGKEREFVSAISWNGGRDEYYADSVKGRFTISRDNSKNTVYLQMNSLRAEDTATYYCAYQDNRSWQEYWGQGTQVTVSS
modifications: left off: small tags and cut ends
As for B1, in test [1], the Koff was 840 10^−4s^−1 and the Kon is 0.61 10^5 M^−1s^−1.

B2: DB-6: dimerization binder nanobody; CDRs RFSWGEE, WAATPWQ, DEWHIGHVS (SEQ ID NO: 25-27) (protein)
VHH: EVQLQASGGGFVQPGGSLRLSCAASGRFSWGEEMGWFRQAPGKEREFVSAISWAATPWQYYADSVKGRFTISRDNSKNTVYLQMNSLRAEDTATYYCADEWHIGHVSYWGQGTQVTVSS
modifications: left off: small tags and cut ends
For the molecule B2, in test [1], the Koff is given as 1,820 10^−4s^−1 and the Kon is listed as 0.096 10^5 M^−1s^−1.

B3: DB-21: dimerization binder nanobody; CDRs TTYGQTN, GLQGRDL, FHDFLRMWE (SEQ ID NO: 70-72) (protein)
VHH: EVQLQASGGGFVQPGGSLRLSCAASGTTYGQTNMGWFRQAPGKEREFVSAISGLQGRDLYYADSVKGRFTISRDNSKNTVYLQMNSLRAEDTATYYCAFHDFLRMWEYWGQGTQVTVSS
modifications: left off: small tags and cut ends
Regarding B3, the Kd in test [1] (BLI, CA-14* = CA-14 bound to CBD, read-out: CA-14*'s affinity to DB-21 (KBC/α)) was 0.056 µM. For the same molecule, the dissociation rate koff in test [1] (CA-14 with CBD) turned out to be 0.000617 s⁻¹. In test [1], the Koff is 6.17 10^−4s^−1 and the Kon is recorded as 0.11 10^5 M^−1s^−1. Besides, the “binding between CBD and the dimerization binders” value in test [2] (BLI, CBD alone, data not shown) is listed as “very weakly”. Moreover, in test [2] (worked out from KBC/α 56 nM with α=1,000 as a reasonable guess, read-out: KBC (DB-21's affinity to CBD)), the Kd came out at 56 µM.

B4: DB-18: dimerization binder nanobody; CDRs GYSRADD, FGETDSF, YHNYTNMFE (SEQ ID NO: 61-63) (protein)
VHH: EVQLQASGGGFVQPGGSLRLSCAASGGYSRADDMGWFRQAPGKEREFVSAISFGETDSFYYADSVKGRFTISRDNSKNTVYLQMNSLRAEDTATYYCAYHNYTNMFEYWGQGTQVTVSS
modifications: left off: small tags and cut ends
With B4, in test [1], the Koff is given as 227 10^−4s^−1 and the Kon was 0.41 10^5 M^−1s^−1.

B5: CA-14: anchor binder nanobody; CDR1 SRSRQYD, CDR2 SNQDQPP, CDR3 FKQHHANGA (SEQ ID NO: 1-3) (protein)
VHH: EVQLQASGGGFVQPGGSLRLSCAASGSTSRQYDMGWFRQAPGKEREFVSAISSNQDQPPYYADSVKGRFTISRDNSKNTVYLQMNSLRAEDTATYYCAFKQHHANGAYWGQGTQVTVSS
modifications: left off: small tags and cut ends
Regarding B5, the Kd in test [3] was 6 µM.
